In CN114028562A:

Biological target: 天然TSLP
Assay: cell-based or functional assay

Substance: Tezepelumab (antibody)
- IC50, inhibition of natural TSLP-induced STAT5 phosphorylation in SW756-STAT5-Luciferase reporter cells: 1.45 ng/mL
